Test results as given in IntAct's records for PubMed 24019758.

B1: Transcription factor p65 (Mus musculus), Q04207 (parent)
chain: MDDLFPLIFPSEPAQASGPYVEIIEQPKQRGMRFRYKCEGRSAGSIPGERSTDTTKTHPTIKINGYTGPGTVRISLVTKDPPHRPHPHELVGKDCRDGYYEADLCPDRSIHSFQNLGIQCVKKRDLEQAISQRIQTNNNPFHVPIEEQRGDYDLNAVRLCFQVTVRDPAGRPLLLTPVLSHPIFDNRAPNTAELKICRVNRNSGSCLGGDEIFLLCDKVQKEDIEVYFTGPGWEARGSFSQADVHRQVAIVFRTPPYADPSLQAPVRVSMQLRRPSDRELSEPMEFQYLPDTDDRHRIEEKRKRTYETFKSIMKKSPFNGPTEPRPPTRRIAVPTRNSTSVPKPAPQPYTFPASLSTINFDEFSPMLLPSGQISNQALALAPSSAPVLAQTMVPSSAMVPLAQPPAPAPVLTPGPPQSLSAPVPKSTQAGEGTLSEALLHLQFDADEDLGALLGNSTDPGVFTDLASVDNSEFQQLLNQGVSMSHSTAEPMLMEYPEAITRLVTGSQRPPDPAPTPLGTSGLPNGLSGDEDFSSIADMDFSALLSQISS

How the values were obtained:
cbp_mouse Crebbp, P45481 [1] = variants of: B1; conditions: with cbp_mouse Crebbp
cbp_mouse Crebbp, P45481 [2] = variants of: B1; conditions: with cbp_mouse Crebbp; remark: listed apart in the source
cbp_mouse Crebbp, P45481 [3] = variants of: B1; conditions: with cbp_mouse Crebbp; remark: listed apart in the source
[4] = variants of: B1; conditions: with ep300_mouse Ep300, B2RWS6
cbp_mouse Crebbp, P45481 [5] = variants of: B1; conditions: with cbp_mouse Crebbp; remark: listed apart in the source

Chain of cbp_mouse Crebbp, P45481 (P45481 whole entry): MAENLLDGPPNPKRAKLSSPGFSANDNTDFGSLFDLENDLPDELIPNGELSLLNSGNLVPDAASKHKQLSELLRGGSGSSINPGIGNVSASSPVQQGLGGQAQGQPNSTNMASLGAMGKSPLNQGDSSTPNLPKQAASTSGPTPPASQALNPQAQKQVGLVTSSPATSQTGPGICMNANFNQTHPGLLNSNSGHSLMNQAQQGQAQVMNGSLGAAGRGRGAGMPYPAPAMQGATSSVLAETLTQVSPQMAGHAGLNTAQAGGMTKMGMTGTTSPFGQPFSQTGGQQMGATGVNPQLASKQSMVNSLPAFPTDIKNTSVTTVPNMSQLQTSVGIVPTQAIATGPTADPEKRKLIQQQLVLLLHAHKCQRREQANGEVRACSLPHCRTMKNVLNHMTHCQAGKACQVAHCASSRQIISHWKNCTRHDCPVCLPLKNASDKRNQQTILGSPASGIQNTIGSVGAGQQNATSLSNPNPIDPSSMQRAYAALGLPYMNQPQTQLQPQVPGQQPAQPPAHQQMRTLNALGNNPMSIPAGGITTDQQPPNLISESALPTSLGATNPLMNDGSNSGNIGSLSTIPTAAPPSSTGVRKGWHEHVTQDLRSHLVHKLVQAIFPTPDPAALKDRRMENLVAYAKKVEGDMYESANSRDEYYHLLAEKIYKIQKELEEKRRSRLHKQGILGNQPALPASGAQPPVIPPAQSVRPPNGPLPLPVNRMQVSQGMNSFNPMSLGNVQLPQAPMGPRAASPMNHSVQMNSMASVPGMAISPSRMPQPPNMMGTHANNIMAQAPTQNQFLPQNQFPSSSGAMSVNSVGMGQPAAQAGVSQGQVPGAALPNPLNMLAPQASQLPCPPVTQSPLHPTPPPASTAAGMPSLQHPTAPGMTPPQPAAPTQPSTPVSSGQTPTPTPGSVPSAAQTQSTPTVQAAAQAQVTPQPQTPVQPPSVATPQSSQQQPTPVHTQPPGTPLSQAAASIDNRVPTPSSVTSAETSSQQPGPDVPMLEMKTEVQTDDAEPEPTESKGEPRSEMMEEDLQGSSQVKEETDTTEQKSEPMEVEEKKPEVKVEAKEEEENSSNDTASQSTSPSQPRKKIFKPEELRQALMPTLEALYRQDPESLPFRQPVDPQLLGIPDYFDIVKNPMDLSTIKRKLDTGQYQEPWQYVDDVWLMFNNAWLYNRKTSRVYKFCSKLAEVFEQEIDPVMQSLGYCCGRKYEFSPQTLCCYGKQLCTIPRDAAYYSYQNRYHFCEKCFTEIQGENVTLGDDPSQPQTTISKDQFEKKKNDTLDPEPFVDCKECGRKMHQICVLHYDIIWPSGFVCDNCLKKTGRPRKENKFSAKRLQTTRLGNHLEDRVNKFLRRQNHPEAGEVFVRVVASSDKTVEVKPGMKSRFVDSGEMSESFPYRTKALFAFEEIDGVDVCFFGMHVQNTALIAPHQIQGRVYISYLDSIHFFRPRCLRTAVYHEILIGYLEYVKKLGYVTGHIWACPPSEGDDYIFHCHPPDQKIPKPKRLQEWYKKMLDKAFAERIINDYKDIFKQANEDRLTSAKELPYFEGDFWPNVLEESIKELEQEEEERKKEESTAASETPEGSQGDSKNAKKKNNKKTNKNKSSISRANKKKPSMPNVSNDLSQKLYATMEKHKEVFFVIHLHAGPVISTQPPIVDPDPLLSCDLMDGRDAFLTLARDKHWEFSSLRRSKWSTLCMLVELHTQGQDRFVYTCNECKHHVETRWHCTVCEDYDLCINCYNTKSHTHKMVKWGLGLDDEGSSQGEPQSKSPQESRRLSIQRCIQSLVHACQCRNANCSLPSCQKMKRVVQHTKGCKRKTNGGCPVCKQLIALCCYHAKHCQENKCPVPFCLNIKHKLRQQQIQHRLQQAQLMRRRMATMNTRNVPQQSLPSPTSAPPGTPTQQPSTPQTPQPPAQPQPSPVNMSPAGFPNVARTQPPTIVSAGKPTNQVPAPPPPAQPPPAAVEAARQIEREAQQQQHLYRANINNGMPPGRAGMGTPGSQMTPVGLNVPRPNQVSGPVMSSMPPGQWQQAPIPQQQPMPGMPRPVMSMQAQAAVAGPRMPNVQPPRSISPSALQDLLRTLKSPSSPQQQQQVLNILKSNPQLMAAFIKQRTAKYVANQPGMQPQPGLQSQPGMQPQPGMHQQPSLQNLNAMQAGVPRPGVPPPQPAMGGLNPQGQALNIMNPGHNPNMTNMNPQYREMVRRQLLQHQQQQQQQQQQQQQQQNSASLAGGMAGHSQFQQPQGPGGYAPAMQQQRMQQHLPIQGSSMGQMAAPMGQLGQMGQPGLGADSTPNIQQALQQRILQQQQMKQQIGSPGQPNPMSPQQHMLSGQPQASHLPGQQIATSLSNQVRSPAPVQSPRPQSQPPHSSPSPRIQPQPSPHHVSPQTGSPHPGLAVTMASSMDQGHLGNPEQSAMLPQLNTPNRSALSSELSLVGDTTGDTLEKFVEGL
Chain of ep300_mouse Ep300, B2RWS6 (B2RWS6 whole entry): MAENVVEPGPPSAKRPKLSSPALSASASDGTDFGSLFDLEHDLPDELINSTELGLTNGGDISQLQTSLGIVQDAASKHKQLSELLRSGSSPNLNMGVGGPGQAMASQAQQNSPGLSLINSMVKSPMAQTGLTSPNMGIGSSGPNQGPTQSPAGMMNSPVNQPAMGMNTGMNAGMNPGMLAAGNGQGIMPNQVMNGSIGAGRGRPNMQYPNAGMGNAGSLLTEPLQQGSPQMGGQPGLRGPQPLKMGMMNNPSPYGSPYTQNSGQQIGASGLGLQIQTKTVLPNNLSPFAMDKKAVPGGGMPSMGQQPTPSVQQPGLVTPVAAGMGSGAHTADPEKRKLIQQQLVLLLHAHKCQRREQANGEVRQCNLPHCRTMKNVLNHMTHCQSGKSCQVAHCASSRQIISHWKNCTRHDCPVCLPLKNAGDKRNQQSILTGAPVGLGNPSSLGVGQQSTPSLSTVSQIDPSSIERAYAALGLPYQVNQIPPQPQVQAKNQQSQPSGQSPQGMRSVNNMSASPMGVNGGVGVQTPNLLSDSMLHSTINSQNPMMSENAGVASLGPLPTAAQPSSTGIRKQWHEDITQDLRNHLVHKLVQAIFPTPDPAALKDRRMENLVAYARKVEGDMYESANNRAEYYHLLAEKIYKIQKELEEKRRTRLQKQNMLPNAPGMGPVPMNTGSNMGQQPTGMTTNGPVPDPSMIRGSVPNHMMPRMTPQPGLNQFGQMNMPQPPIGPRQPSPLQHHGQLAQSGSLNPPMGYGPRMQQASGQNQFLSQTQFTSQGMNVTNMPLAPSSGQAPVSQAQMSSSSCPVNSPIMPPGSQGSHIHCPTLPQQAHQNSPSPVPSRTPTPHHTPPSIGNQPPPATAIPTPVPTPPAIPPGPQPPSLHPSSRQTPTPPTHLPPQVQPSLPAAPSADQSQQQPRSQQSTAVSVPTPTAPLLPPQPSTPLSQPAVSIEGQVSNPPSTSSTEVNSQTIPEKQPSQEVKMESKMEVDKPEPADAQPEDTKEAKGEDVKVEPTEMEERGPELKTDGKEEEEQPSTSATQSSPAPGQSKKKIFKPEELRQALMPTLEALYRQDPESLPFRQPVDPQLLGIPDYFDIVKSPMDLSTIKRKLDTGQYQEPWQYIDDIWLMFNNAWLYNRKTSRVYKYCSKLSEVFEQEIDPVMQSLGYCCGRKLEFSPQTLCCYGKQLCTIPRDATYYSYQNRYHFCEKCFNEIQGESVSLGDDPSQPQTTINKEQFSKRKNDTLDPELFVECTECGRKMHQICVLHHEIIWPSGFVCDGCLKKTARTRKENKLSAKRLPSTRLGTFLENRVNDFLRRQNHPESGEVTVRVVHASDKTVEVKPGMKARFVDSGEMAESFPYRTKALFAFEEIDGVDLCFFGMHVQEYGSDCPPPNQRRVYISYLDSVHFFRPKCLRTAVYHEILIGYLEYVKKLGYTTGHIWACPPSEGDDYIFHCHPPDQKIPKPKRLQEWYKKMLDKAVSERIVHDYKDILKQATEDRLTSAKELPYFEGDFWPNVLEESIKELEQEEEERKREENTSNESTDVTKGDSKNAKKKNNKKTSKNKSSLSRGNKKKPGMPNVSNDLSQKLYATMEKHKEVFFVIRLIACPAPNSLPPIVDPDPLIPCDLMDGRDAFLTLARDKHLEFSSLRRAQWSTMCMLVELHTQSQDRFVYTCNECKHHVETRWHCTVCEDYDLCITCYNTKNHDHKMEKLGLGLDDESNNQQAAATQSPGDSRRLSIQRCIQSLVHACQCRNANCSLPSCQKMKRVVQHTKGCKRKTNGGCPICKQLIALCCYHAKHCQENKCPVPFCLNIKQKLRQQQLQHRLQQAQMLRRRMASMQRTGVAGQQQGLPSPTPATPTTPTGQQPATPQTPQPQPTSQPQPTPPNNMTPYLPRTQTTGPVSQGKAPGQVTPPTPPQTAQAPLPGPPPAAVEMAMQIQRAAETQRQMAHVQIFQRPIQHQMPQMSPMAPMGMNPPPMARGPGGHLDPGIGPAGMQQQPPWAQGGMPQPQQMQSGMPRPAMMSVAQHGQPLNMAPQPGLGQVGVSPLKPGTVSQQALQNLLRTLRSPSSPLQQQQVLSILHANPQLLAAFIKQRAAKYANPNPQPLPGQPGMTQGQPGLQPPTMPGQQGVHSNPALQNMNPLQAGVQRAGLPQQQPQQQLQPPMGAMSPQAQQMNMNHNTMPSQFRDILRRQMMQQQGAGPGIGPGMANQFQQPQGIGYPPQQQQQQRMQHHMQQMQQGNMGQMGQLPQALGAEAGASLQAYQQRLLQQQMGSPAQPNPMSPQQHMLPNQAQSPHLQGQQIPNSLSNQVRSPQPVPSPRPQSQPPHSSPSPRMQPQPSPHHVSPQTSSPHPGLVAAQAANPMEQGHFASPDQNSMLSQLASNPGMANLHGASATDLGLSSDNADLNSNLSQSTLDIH

Variant | effect of a mutation on the interaction (cbp_mouse Crebbp, P45481 [1]) | effect of a mutation on the interaction (cbp_mouse Crebbp, P45481 [2]) | effect of a mutation on the interaction (cbp_mouse Crebbp, P45481 [3]) | effect of a mutation on the interaction [4] | effect of a mutation on the interaction (cbp_mouse Crebbp, P45481 [5])
L449A;S467A;F473A | disrupting interaction strength | decreasing interaction strength | – | – | –
L449A;F473A | disrupting interaction strength | decreasing interaction strength | disrupting interaction strength | decreasing interaction strength | –
S276A | – | decreasing interaction strength | – | decreasing interaction strength | –
L449A | – | – | disrupting interaction strength | – | decreasing interaction strength

Next, values leading:

effect of a mutation on the interaction (cbp_mouse Crebbp, P45481 [1]) | effect of a mutation on the interaction (cbp_mouse Crebbp, P45481 [2]) | effect of a mutation on the interaction (cbp_mouse Crebbp, P45481 [3]) | effect of a mutation on the interaction [4] | effect of a mutation on the interaction (cbp_mouse Crebbp, P45481 [5]) | Variant
– | – | disrupting interaction strength | – | – | F473A
– | decreasing interaction strength | – | decreasing interaction strength | – | S467A
– | – | disrupting interaction strength | – | decreasing interaction strength | L465A
